This note sets out measurements from the RNAGym collection of RNA variant scans (doi:10.1073/pnas.2313332121).

The chains are these.
B1: TPR t1 (parent)
chain: GACCAAUCUGCCCUCAGAGCUCGAGAACAUCUUCGGAUGCAGAGGAGGCAGGCUUCGGUGGCGCGAUAGCGCCAACGUCCUCAACCUCCAAUGCAUCCCACCACAUGAUGAUGCCUGAAGAGCCUUGGUUUUUUG

In this data set the parent is B1. Kind of data set: polymerase ribozyme fitness, log enrichment relative to wild type (log ratio); higher = more active; in vitro selection for triplet polymerase activity. The essentials:
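A single round of triplicate in vitro selection, including frozen incubation at −7 °C, was applied to PCR-built, transcribed mutant libraries of each subunit of a heterodimeric triplet polymerase ribozyme. Illumina sequencing of input and output libraries retained genotypes with ≥10 input reads and ≥1 read per output. Fitness is the base-2 logarithm of genotype enrichment divided by wild-type enrichment, from inverse-variance-weighted replicate averages.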
Regarding C15U G71C, the “polymerase ribozyme fitness (log ratio)” value was -1.05.

On to C15U G71A, for which the “polymerase ribozyme fitness (log ratio)” value was -2.11.

Turning to C15U C34U, the “polymerase ribozyme fitness (log ratio)” value was -4.93.

A16C C101A G120A: the “polymerase ribozyme fitness (log ratio)” value was -3.59.

On to A16C C79G, for which the “polymerase ribozyme fitness (log ratio)” value is -4.14.

Regarding C15G C85G U96A C114A G117C, the “polymerase ribozyme fitness (log ratio)” value is -3.58.

Consider C15U C64U G117U G120A, for which the “polymerase ribozyme fitness (log ratio)” value was -1.73.

Take C15A G48U A50G C115U: the “polymerase ribozyme fitness (log ratio)” value is -4.63.

Consider C15G G39U C73G U112A G122U, for which the “polymerase ribozyme fitness (log ratio)” value was -2.91.

As for C15U U78C C79G C124G U131A, the “polymerase ribozyme fitness (log ratio)” value was 0.897.

Regarding C15G C70A, the “polymerase ribozyme fitness (log ratio)” value is -5.24.

For C15A U59A, the “polymerase ribozyme fitness (log ratio)” value is -2.31.

Consider C15U G60A U81G C82G A119G G120U C123A, for which the “polymerase ribozyme fitness (log ratio)” value was -1.78.

Regarding C15U G39C C94U C115U C123A G135U, the “polymerase ribozyme fitness (log ratio)” value was -5.48.

For the variant C15U G17U A91G C98U A111C, the “polymerase ribozyme fitness (log ratio)” value is -6.3.

For C15U A100C, the “polymerase ribozyme fitness (log ratio)” value was -2.86.

Take C15U C70U U81A G113A G117A: the “polymerase ribozyme fitness (log ratio)” value was -4.22.

For C15U U133A, the “polymerase ribozyme fitness (log ratio)” value is -1.79.

For the variant C15U U133G, the “polymerase ribozyme fitness (log ratio)” value was -2.11.

Turning to C15U G42C A74U, the “polymerase ribozyme fitness (log ratio)” value is -3.74.

Turning to C15U A111C U130A, the “polymerase ribozyme fitness (log ratio)” value is -1.29.

On to A16C A18C C40U G71U C79U, for which the “polymerase ribozyme fitness (log ratio)” value was -5.22.

Regarding C15G C40A C76G G77C G117C, the “polymerase ribozyme fitness (log ratio)” value was -0.354.

Turning to C15A C123U, the “polymerase ribozyme fitness (log ratio)” value is -1.1.

Turning to C15A C123A, the “polymerase ribozyme fitness (log ratio)” value is -1.02.

Regarding C15U A50U C73U A118U G127A, the “polymerase ribozyme fitness (log ratio)” value is -5.35.

For the variant C15G C53U C85G, the “polymerase ribozyme fitness (log ratio)” value is -4.35.

Take C15G C73G C88U U116G: the “polymerase ribozyme fitness (log ratio)” value was -3.52.

As for C15G C49G G71U A74U U106C C124U, the “polymerase ribozyme fitness (log ratio)” value is -5.29.

Take C15A G39C C114G: the “polymerase ribozyme fitness (log ratio)” value is -4.44.

In the case of A16C A50U U54A C86G, the “polymerase ribozyme fitness (log ratio)” value is -5.88.

Take A16C C49A: the “polymerase ribozyme fitness (log ratio)” value was -3.04.

C15A C53U A66U: the “polymerase ribozyme fitness (log ratio)” value is -4.71.

Regarding C15G G44U, the “polymerase ribozyme fitness (log ratio)” value is -3.71.

On to C15U A43C, for which the “polymerase ribozyme fitness (log ratio)” value was -2.99.

In the case of C15A G45U G61U A84U C123U, the “polymerase ribozyme fitness (log ratio)” value was -2.78.

With A16C C22U, the “polymerase ribozyme fitness (log ratio)” value is -5.8.

Take C15A G47U C80U C86A: the “polymerase ribozyme fitness (log ratio)” value is -3.28.

On to C15U G39A C98U, for which the “polymerase ribozyme fitness (log ratio)” value is -3.87.

As to C15A C73G C123A, the “polymerase ribozyme fitness (log ratio)” value is -2.17.

For C15U A74C A75G C115A, the “polymerase ribozyme fitness (log ratio)” value was -3.69.

Consider C15A C98U, for which the “polymerase ribozyme fitness (log ratio)” value was -3.62.

Turning to C15G U132A, the “polymerase ribozyme fitness (log ratio)” value is -2.31.

As for C15A C62G U92C A121U, the “polymerase ribozyme fitness (log ratio)” value is -4.25.

C15A C97A G120A U130A: the “polymerase ribozyme fitness (log ratio)” value is -4.97.

Regarding C15G G39U C72A, the “polymerase ribozyme fitness (log ratio)” value is -3.5.

For the variant C15A C86A U129A, the “polymerase ribozyme fitness (log ratio)” value was -4.12.

As for C15U C62G C82A, the “polymerase ribozyme fitness (log ratio)” value is -2.4.

For C15A U92G, the “polymerase ribozyme fitness (log ratio)” value was -4.55.

Consider C15G A27C A41G C114U U116C, for which the “polymerase ribozyme fitness (log ratio)” value is -7.35.

Take A16C C62U A83C C88G: the “polymerase ribozyme fitness (log ratio)” value is -2.71.

With C15G G57A U132C, the “polymerase ribozyme fitness (log ratio)” value was -3.99.

As for C15U G36C A50C C72U C124G, the “polymerase ribozyme fitness (log ratio)” value was -0.154.

As to C15A C98U G117A, the “polymerase ribozyme fitness (log ratio)” value is -4.11.

Consider C15U G93U, for which the “polymerase ribozyme fitness (log ratio)” value was -2.38.

As for C15G A29C G71C C86U G113U G120U U129A, the “polymerase ribozyme fitness (log ratio)” value is -6.08.

Turning to C15U A84C, the “polymerase ribozyme fitness (log ratio)” value was -1.68.

Consider C15U A18U C31A G39U U54A C72U C114U C115G, for which the “polymerase ribozyme fitness (log ratio)” value was -6.25.

On to C15U C64G A90C C114U G128A, for which the “polymerase ribozyme fitness (log ratio)” value is -6.98.

Take A16C C70U C85G: the “polymerase ribozyme fitness (log ratio)” value is -3.97.

In the case of C15G A119G, the “polymerase ribozyme fitness (log ratio)” value came out at 0.41.

With C15U A84U U87A A105G G113U, the “polymerase ribozyme fitness (log ratio)” value is -5.89.

As to C15U C115A, the “polymerase ribozyme fitness (log ratio)” value is -1.57.

Consider C15U C73A U78A C86G, for which the “polymerase ribozyme fitness (log ratio)” value was -2.43.

With C15A G63U, the “polymerase ribozyme fitness (log ratio)” value is -3.03.

With C15U C97G A121C, the “polymerase ribozyme fitness (log ratio)” value was -4.09.

In the case of C15U A41U A90C C115G, the “polymerase ribozyme fitness (log ratio)” value is -4.18.

As to C15G C49U U106A, the “polymerase ribozyme fitness (log ratio)” value was -3.74.

Turning to C15U G60A A91C, the “polymerase ribozyme fitness (log ratio)” value was -2.6.

Regarding C15U C64U, the “polymerase ribozyme fitness (log ratio)” value is -1.59.

For C15G G47A C70G G117C, the “polymerase ribozyme fitness (log ratio)” value is -3.82.

In the case of C15U G45A C56A G77C C88G G117C C123U, the “polymerase ribozyme fitness (log ratio)” value is -4.21.

On to C15U C73U G77A C98A, for which the “polymerase ribozyme fitness (log ratio)” value is -8.01.

On to C15G G52U C76U U96C C99U A111G, for which the “polymerase ribozyme fitness (log ratio)” value is -7.38.

Turning to C15U G23C A27U G45C G113C, the “polymerase ribozyme fitness (log ratio)” value was -6.21.

As to C15U C70U, the “polymerase ribozyme fitness (log ratio)” value was -1.7.

With C15U A16C G93C C123U U126C, the “polymerase ribozyme fitness (log ratio)” value was -2.73.

For C15G A37U G48U G77U G122A, the “polymerase ribozyme fitness (log ratio)” value was -4.17.

In the case of A16C A27G G61A U112C, the “polymerase ribozyme fitness (log ratio)” value was -1.49.

Regarding C15A C70G, the “polymerase ribozyme fitness (log ratio)” value was -3.97.

For the variant C15U U30G C53G G71C U78G U106A, the “polymerase ribozyme fitness (log ratio)” value is -4.3.

For A16C C73G U116C G135U, the “polymerase ribozyme fitness (log ratio)” value is -3.68.

For C15U G39C G69U C94U C115U C123A G135U, the “polymerase ribozyme fitness (log ratio)” value was -1.89.
